Values of other authors, collected in patent publication US20150177237.

Target: thrombin (UniProt P00734+P00734)
Settings: n positions 6-20 are abasic (x); CITED known Kd of thrombin for its aptamer; nanopore event ratios at 10-1000 nM thrombin closely match theory from this Kd; 1 M KCl, 10 mM Tris pH 7.5

For “AAAAANNNNNNNNNNNNNNNAAAAAAAAAAGGTTGGTGTGGTTGG [5A15x10A_TBA]”, the Kd is listed as 50 nM.
